{"source": "patent US20030083294", "key": {"[1]": {"biological_target": "T1, coagulation factor IXa (FIXa) (Homo sapiens) (UniProt P00740+P00740)", "test": "competition", "conditions": "2'-F pyrimidines, 2'-OH purines; 3-nt 2'-OMe 3' tail; comparable to 9.3t"}, "[2]": {"biological_target": "T1, coagulation factor IXa (FIXa) (Homo sapiens)", "conditions": "2'-F pyrimidines, 2'-OH purines; physiologic salt and pH, 37 C"}, "[3]": {"biological_target": "activated protein C (APC) (UniProt P04070+P04070)", "conditions": "2'-F pyrimidines, 2'-OH purines; <10% RNA bound at up to 5 uM protein; >5000-fold specificity"}, "[4]": {"biological_target": "coagulation factor VIIa (FVIIa) (UniProt P08709+P08709)", "conditions": "2'-F pyrimidines, 2'-OH purines; <10% RNA bound at up to 5 uM protein; >5000-fold specificity"}, "[5]": {"biological_target": "coagulation factor XIa (FXIa) (UniProt P03951+P03951)", "conditions": "2'-F pyrimidines, 2'-OH purines; <10% RNA bound at up to 5 uM protein; >5000-fold specificity"}, "[6]": {"biological_target": "T2, coagulation factor Xa (FXa) (Homo sapiens) (UniProt P00742+P00742)", "conditions": "2'-F pyrimidines, 2'-OH purines; <10% RNA bound at up to 5 uM protein; >5000-fold specificity"}, "[7]": {"biological_target": "T2, coagulation factor Xa (FXa) (Homo sapiens)", "conditions": "2'-F pyrimidines?"}, "[8]": {"biological_target": "T2, coagulation factor Xa (FXa) (Homo sapiens)", "conditions": "2'-F pyrimidines?; versus 11F7t; no anticoagulant activity in PT or APTT"}}, "note": "Read-outs that look alike come from different tables or passages of the source."}
{"sequence": "AUGGGGACUAUACCGCGUAAUGCUGCCUCCCCAUN [9.3t-3NT]", "values": [{"measurement": "Kd", "setting": "[1]", "result": "< 1.5", "unit": "nM"}]}
{"sequence": "AUGGGGACUAUACCGCGUAAUGCUGCCUCCCCAUN [9.3t]", "values": [{"measurement": "Kd", "setting": "[2]", "result": 0.6, "unit": "nM"}, {"measurement": "Kd", "setting": "[3]", "result": "> 5000", "unit": "nM"}, {"measurement": "Kd", "setting": "[4]", "result": "> 5000", "unit": "nM"}, {"measurement": "Kd", "setting": "[5]", "result": "> 5000", "unit": "nM"}, {"measurement": "Kd", "setting": "[6]", "result": "> 5000", "unit": "nM"}]}
{"sequence": "GAGAGCCCCAGCGAGAUAAUACUUGGCCCCGCUCUUN [11F7t]", "values": [{"measurement": "Kd", "setting": "[7]", "result": 1.5, "unit": "nM"}]}
{"sequence": "GAGAGCCCCAGCGAGAUAAUACUUGUACCCGCUCUUN [11F7tM]", "values": [{"measurement": "binding signal (fold loss of affinity)", "setting": "[8]", "result": "> 1300"}]}
